{"source": "patent CN114349861A", "about": "(HUAOTSU BALL; JIANGSU INST OF TARGET BIOMEDICINE CO LTD, dated 2022)", "binders": {"B1": {"name": "抗PD1-VHH1 (VHH)", "VHH": "QVQLVESGGGSVQAGGSLRLSCAASGYASSSYSMGWFRQAPGKEREAVAGVNRDGSTRYADSVKGRFTISKDNAKNTLYLQMNSLKPEDTAMYYCAADRGWLPRRPDYWGQGTQVTVSS", "notes": "Camel (dromedary) VHH selected from a T7 phage library; The soluble protein was expressed from pET32a in E. coli BL21(DE3) and purified on Ni-IDA; The specificity ELISA detected it with an anti-HA antibody; also called 抗PD1Nb1; antiPD1Nb"}}, "biological_target": "T1, 人PD1蛋白 (human, UniProt Q15116 25-170)", "T1 construct": "extracellular domain; also called PD1(人); PD1(胞外段)蛋白", "T1 sequence (Q15116 25-170)": "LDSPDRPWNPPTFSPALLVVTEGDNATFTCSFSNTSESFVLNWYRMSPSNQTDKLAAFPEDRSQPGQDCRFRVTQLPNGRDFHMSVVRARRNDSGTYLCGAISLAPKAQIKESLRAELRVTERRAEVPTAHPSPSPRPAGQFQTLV", "test": "non-competitive ELISA at three PD1 coating concentrations; Beatty formula, mean of three K values"}
{"binder": "B1", "values": [{"measurement": "Ka", "value": "8.2e+06", "unit": "M⁻¹"}]}
